Laboratory results published in JP2009045066A (dated 2009).

Target: T1, 天然のヒトCD4(細胞表面) (human, UniProt P01730 26-458)
T1 construct: whole, on cells; also called nCD4; CD4 on SupT1 cells
Test: flow cytometry on SupT1 cells, serial dilutions, half-maximal fluorescence

Ka: > 1e+09 M⁻¹
B1: 4D1 (antibody, V domains shown)
VH: EVQLVQSGAEVKKPGESLKISCKGSGYSFTGYWIGWVRQMPGKGLEWMGIIYPGDSDTTYSPSFQGQVTISADKSISTAYLQWSSLKASDTAMYYCARDQLGLFDYWGQGTLVTVSS
VL: DIQMTQSPSSLSASVGDRVTITCRASQGISSWLAWYQQKPEKAPKSLIYSASSLQSGVPSRFSGSGSGTDFTLTISSLQPEDFATYYCQQYDSYPYTFGQGTKLEIK
